How the values were obtained:
[1] = target: 5'FAM-labeled Strep-tag II peptide; test: fluorescence polarisation; 20 nM 5'FAM-labeled peptide with rising concentrations of Streptavidin/StrepTactin, triplicates; ES2 buffer (100 mM potassium phosphate pH 7.4, 100 μg/ml bovine γ globulin, 0.02% NaN3); at least 2 h at RT or o/n at 4 °C
[2] = target: 5'FAM-labeled F14.5 peptide; test: as above

Q: Which results are given for Recombinant StrepTactin, unconjugated?
A: Kd [1]: 0.43 µM; Kd [2]: 44.3 µM
